{
  "source": "patent US6426362B1",
  "about": "“Formulations of tocopherols and methods of making and using them” (Galileo Laboratories, Inc., priority 1999, dated 2002)",
  "molecules": {"B1": {"name": "lactoferrin: Bovine lactoferrin, iron-binding glycoprotein of milk (Sigma cat. # L9507 or DMV International Nutritionals) (protein, UniProt P24627 20-708, looked up)", "Lactotransferrin": "APRKNVRWCTISQPEWFKCRRWQWRMKKLGAPSITCVRRAFALECIRAIAEKKADAVTLDGGMVFEAGRDPYKLRPVAAEIYGTKESPQTHYYAVAVVKKGSNFQLDQLQGRKSCHTGLGRSAGWIIPMGILRPYLSWTESLEPLQGAVAKFFSASCVPCIDRQAYPNLCQLCKGEGENQCACSSREPYFGYSGAFKCLQDGAGDVAFVKETTVFENLPEKADRDQYELLCLNNSRAPVDAFKECHLAQVPSHAVVARSVDGKEDLIWKLLSKAQEKFGKNKSRSFQLFGSPPGQRDLLFKDSALGFLRIPSKVDSALYLGSRYLTTLKNLRETAEEVKARYTRVVWCAVGPEEQKKCQQWSQQSGQNVTCATASTTDDCIVLVLKGEADALNLDGGYIYTAGKCGLVPVLAENRKSSKHSSLDCVLRPTEGYLAVAVVKKANEGLTWNSLKDKKSCHTAVDRTAGWNIPMGLIVNQTGSCAFDEFFSQSCAPGADPKSRLCALCAGDDQGLDKCVPNSKEKYYGYTGAFRCLAEDVGDVAFVKNDTVWENTNGESTADWAKNLNREDFRLLCLDGTRKPVTEAQSCHLAVAPNHAVVSRSDRAAHVKQVLLHQQALFGKNGKNCPDKFCLFKSETKNLLFNDNTECLAKLGGRPTYEEYLGTEYVTAIANLKKCSTSPLLEACAFLTR"}},
  "tested_on": "Oxidatively competent cells",
  "test": "Antimycin A-induced cell death in oxidatively competent cells, SYTOX assay after 4 hours",
  "assay_type": "cell-based, rat-human hybrid (GCL1)",
  "conditions": "lactoferrin alone at 100 μg/ml",
  "source_text": "The GCL1 (WiF-B) liver cell line is a hybrid originating from the fusion of rat hepatoma cells (fao) and human fibroblasts (W138). Cassio et al. (1991) J. Cell Biol. 115:1397-1408; Shanks et al. (1994) J. Cell Science 107:813-825. […] Ihrke et al. 1993, J. Cell Biol. 123:1761-1775. At greater than 80% confluence, more than 80% of the cells participate in forming one or more phaselucent, spherical structures that are located between cells, termed bile canicular-like spaces. In contrast to the majority of cell lines maintained in culture which are fermentative, GCL1 cells, when at their maximal density and polarity, are highly oxidative (i.e., they can be readily killed by inhibitors of oxidative phosphorylation or electron transport uncouplers). […] These cells are amenable to use in high throughput screening (HTS) technology.\nEnergetically competent cells are seeded onto 96-well plates at 1×10^3/well or 2.5×10^3/well as passage 15. The cells are grown in DMEM with 10% FBS and 1.5 g/L sodium bicarbonate for 24 or 48 hours to reach 85% confluence. The cells are washed once with HBSS and then 100 μl of HBSS containing different concentration of AA (Sigma Chemical Co., Cat # A 8674) is added to the cells. AA is dissolved in DMSO to make a stock solution of 50 mM, then diluted with HBSS to 100, 50, 25, 12.5, 6.25, 3.125, and 1.56 μM for dose-response curves. […]",
  "data": [
    {"molecule": "B1", "values": [
      {"measurement": "cell death", "setting": "Example 8, experiment with (+/−)-alpha tocopherol", "result": 85.9, "unit": "%"},
      {"measurement": "cell death", "setting": "Example 8, experiment with alpha-tocopherol Type V", "result": 96, "unit": "%"}
    ]}
  ]
}
